Source: patent US20250205362A1, “LIPID NANOPARTICLES” (NATIONAL UNIVERSITY CORPORATION HOKKAIDO UNIVERSITY, priority 2022, published 2025)
Numbering of substitutions follows the chain as printed. Marks after values point to notes of the source that are not given here.

B1: ssODN-TTR_3-80%: ssODN pairing with sgTTR-G211, 80% matched; SEQ ID NO 4 (nucleic acid)
DNA: AAAAAAAAAAAAAAAAAAAAAAAAAAAAAAAAAAAAAAAAAAAAAAAAAAAAAAAAAACTGTAGACGTGGCTGTTTAAAAAAAAAAAAAAAAAAAAAAAAAAAAAAAAAAAAAAAAAAAAAAAAAAAAAAAA
B2: ssODN-TTR_3-50° C.-3′: ssODN pairing with sgTTR-G211, mismatch on one side; SEQ ID NO 20 (nucleic acid)
DNA: B1 DNA with A57T, A58G, G73A, T74A
B3: ssODN-TTR_3-50° C.-5′: ssODN pairing with sgTTR-G211, mismatch on one side; SEQ ID NO 21 (nucleic acid)
DNA: B1 DNA with C59A, T75A, T76A
B4: ssODN-TTR_3-0%: ssODN, 0% matched with sgTTR-G211; SEQ ID NO 9 (nucleic acid)
DNA: AAAAAAAAAAAAAAAAAAAAAAAAAAAAAAAAAAAAAAAAAAAAAAAAAAAAAAAAAAAAAATATAAAAAAAAATTAAAAAAAAAAAAAAAAAAAAAAAAAAAAAAAAAAAAAAAAAAAAAAAAAAAAAAAA

Tests used:
[1] = Blood test 24 hours after administration (toxicity); format: in vivo, mouse; details: mice
Procedure: TTR-RNP-ssODN-loaded lipid nanoparticles were intravenously injected to BALB/c mice (female, 4 weeks old) at 2 mg RNP/kg body weight for two consecutive days. One week after the last injection, mice were anesthetized, weighed, and blood was collected. […] Hematological parameters in serum were measured by Oriental Yeast Co., Ltd.
In addition, for mice administered with Fluc mRNA-loaded lipid nanoparticles containing CL4F12-e-4, blood was collected 24 hours after administration and tested for each component. As a control, a blood test was also performed in a similar manner on mice that received PBS instead of the Fluc mRNA-loaded lipid nanoparticles. The results are shown in Table 14 (n=3, unpaired t-test). In the table, TP stands for total protein, AST for aspartate transaminase, ALB for albumin, LDH for […], BUN for blood urea nitrogen, γ-GT for γ-glutamyl transpeptidase, CRE for creatinine, T-CHO for total cholesterol, IP for inorganic phosphate, TG for triglyceride, HDL-C for high-density lipoprotein cholesterol, T-BIL for total bilirubin, and GLU for glucose, respectively. Additionally, ** indicates P<0.01, and * indicates P<0.05.

[2] = Encapsulation rate of lipid nanoparticles (Ribogreen); format: physicochemical
Procedure: The encapsulation rate of the lipid nanoparticles was calculated by measuring the amount of encapsulated nucleic acid (the amount of ssODN in the case of RNP-ssODN) using an RNA intercalator Ribogreen (manufactured by Life Technologies).

[3] = Average particle diameter, PdI and zeta potential of lipid nanoparticles (dynamic light scattering); format: physicochemical
Procedure: The mean particle diameter (number average value), ζ-mean particle diameter, and polydispersity index (PdI) of the lipid nanoparticles in PBS(−) (pH 7.4), as well as the zeta potential in 10 mM HEPES buffer (pH 7.4), were measured using an analyzing device, Zetasizer Nano ZS ZEN3600 (Malvern), which utilizes dynamic light scattering.

BALB/c mice = assay: Measurement of Fluc activity in tissues after iv Fluc mRNA-loaded lipid nanoparticles; format: in vivo, mouse; details: Example 2, FIG. 3; CL4F11-e-3 LNP with DSPC or DOPE; Balb/c mice
Procedure: First, lipid nanoparticles encapsulating Fluc mRNA (Fluc mRNA-loaded lipid nanoparticles) were intravenously injected into BALB/c mice (female, 4 weeks old) at a dose of 0.01 mg mRNA/kg body weight. Six hours after intravenous injection, the mice were euthanized, and each tissue was collected, frozen in liquid nitrogen, and stored at −80° C. The tissues were homogenized in passive lysis buffer (Promega) using a bead cell disrupter (Micro Smash MS-100R, TOMY Seiko). Tissue debris was removed by centrifugation and the supernatant was collected. Fluc activity in the supernatant was measured using a luciferase assay system (E1500, Promega) according to the manufacturer's protocol. Luminescence was measured using a luminometer (Luminescencer-PSN, ATTO). The protein concentration was determined using a commercially available measurement kit (BCA Protein Assay Kit, Pierce). Fluc activity was expressed as relative light units (RLU) per mg of protein.

TTR gene = assay: Measurement of TTR-KO activity (serum TTR protein, ELISA); format: in vivo, mouse; details: for serum TTR (5′ versus 3′ mismatch site): FIG. 8, CL4H6 LNP, sgTTR-G211, 7 days after administration
Procedure: Lipid nanoparticles encapsulating Cas9/sgTTR-RNP (Cas9/sgTTR-RNP-loaded lipid nanoparticles) were intravenously injected to BALB/c mice (female, 4 weeks old) at the indicated doses. One week after intravenous injection, the mice were euthanized, blood was collected, and serum was isolated by centrifugation. The TTR protein concentration in the serum was determined using a commercially available ELISA kit (Prealbumin ELISA Kit (mouse), Aviva Systems Biology) according to the manufacturer's protocol. The serum TTR protein concentration of untreated mice was taken as 100%, and the relative value (%) of the serum TTR protein concentration of mice administered with each lipid nanoparticle was taken as the knockout activity (TTR-KO activity) of the lipid nanoparticle.

dsDNA from the TTR locus = assay: In vitro DNA cleavage activity; format: biochemical, mouse; details: n=3
Source text: Genomic DNA was collected and purified from BALB/c mouse liver tissue using a commercially available nucleic acid extraction kit (NucleoSpin Tissue, MACHEREY-NAGEL) according to the manufacturer's protocol.
The dsDNA from the TTR locus was amplified by PCR (using KAPA HiFi HotStart DNA polymerase (KAPA Biosystems)) using the genomic DNA as a template and the primer set shown in Table 4, and purified using a commercially available nucleic acid purification kit (ISOSPIN PCR Product, Nippon Gene).
The ssODN (5 equivalents relative to […]) was added to Cas9/sgTTR-RNP to form a TTR-RNP-ssODN complex. […] The reaction solution was then heated at 65° C. for 5 minutes to inactivate Cas9-RNP, and the dsDNA was then subjected to electrophoresis on a 3% agarose gel at 100 V for 40 minutes. After electrophoresis, the gel was stained (GelRed, Biotium) and visualized using a fluorescent/visible light gel imaging system (Printgraph CMOS I, ATTO). Bands were quantified using image analysis software (ImageJ).
DNA cleavage was calculated using the following formula: in the formula, Int_full and Int_cleaved indicate the intensities derived from full length (uncleaved) and cleaved DNA, respectively.

[4] = Evaluation of biodistribution (fluorescently labeled RNP-ssODN); format: in vivo, mouse; details: mice iv 2 mg RNP/kg, 1 hour; labeled TTR-RNP-ssODN in CL4H6 LNP (ssODN(−): free RNP, no LNP)
Procedure: For fluorescent labeling of lipid nanoparticles, the RNP-ssODN solution described above was mixed with a three-fold molar amount of a fluorescent molecule (DyLight 650 NHS ester) in DMSO and incubated for 30 min at ambient temperature in the dark. Unreacted fluorescent molecules were removed by ultrafiltration (Amicon Ultra-0.5, MWCO 3 kDa, Millipore).
Lipid nanoparticles encapsulating the obtained fluorescently labeled RNP-ssODN (fluorescently labeled RNP-ssODN-loaded lipid nanoparticles) were intravenously injected into BALB/c mice (female, 4 weeks old) at 2 mg RNP/kg body weight. One hour after intravenous injection, the mice were euthanized and various tissues, including blood, were collected. The collected blood was immediately diluted with 1% sodium dodecyl sulfate (SDS) solution. The collected tissues were immediately weighed and then homogenized in 1% sodium dodecyl sulfate (SDS) solution. The resulting homogenates were transferred to a black 96-well plate, and fluorescence was measured using a microplate reader (VarioskanLux, Thermo Fisher Scientific) at settings of λex=652 nm and λem=672 nm. Calibration curves were generated using fluorescently labeled RNP-ssODN-loaded lipid nanoparticles and blood or tissue homogenates similarly prepared from untreated mice. Biodistribution was expressed as the percentage of injected dose per tissue or blood (% injected dose).

[5] = blood 24 hours after Fluc mRNA-loaded LNP containing CL4F12-e-4, n=3
[6] = Fluc mRNA-loaded LNP, CL4F11-e-3/neutral lipid (DSPC or DOPE)/cholesterol/PEG-DMG 50/10/40/0.75 mol%
[7] = TTR-RNP-ssODN-loaded LNP, sgTTR-G211, CL4H6/DSPC/cholesterol/PEG-DMG 50/10/40/3.5 mol%, Table 11
[8] = TTR-KO activity in mice, TTR-RNP-ssODN-loaded LNP CL4H6/DSPC/cholesterol/PEG-DMG 50/10/40/3.5 mol%, sgTTR-G211 (TTR_3) or sgTTR-G269 (TTR_4)
[9] = TTR-RNP-ssODN-loaded LNP, sgTTR-G211, CL4H6/DSPC/cholesterol/PEG-DMG 50/10/40/3.5 mol%, Table 13

| Molecule | Encapsulation rate [2, 7] | Number-average particle diameter [3, 7] | PdI [3, 7] | ζ-average [3, 7] | ζ-potential [3, 7] | ID %/tissue blood [4] | ID %/tissue kidney [4] | ID %/tissue liver [4] | ID %/tissue lung [4] | ID %/tissue spleen [4] | Encapsulation rate [2, 9] | Number-average particle diameter [3, 9] | PdI [3, 9] | ζ-average [3, 9] | ζ-potential [3, 9] | serum TTR (5′ versus 3′ mismatch site) (TTR gene) | further results |
| --- | --- | --- | --- | --- | --- | --- | --- | --- | --- | --- | --- | --- | --- | --- | --- | --- | --- |
| CCCCCCC(CCCC)CCCCC(=O)OCCCCCCC(O)(CCCCCCOC(=O)CCCCC(CCCC)CCCCCC)CCCCN(CCC)CCC (centres unmarked) [CL4F12-e-4, 7-(4-(dipropylamino)butyl)-7-hydroxytridecane-1,13-diylbis(6-butyldodecanoate)] | – | – | – | – | – | – | – | – | – | – | – | – | – | – | – | – | toxicity (blood test) ([1]; 24 hours after Fluc mRNA-loaded LNP): no particular toxicity was observed; ALB [1, 5]: 3.3 ± 0.1 g/dL; ALT [1, 5]: 39.3 ± 3.4 IU/L; AMY [1, 5]: 1879.3 ± 136.2** IU/L; AST [1, 5]: 95.3 ± 3.4** IU/L; BUN [1, 5]: 25.3 ± 2.8 mg/dL; CRE [1, 5]: 0.1 ± 0.01 mg/dL; Ca [1, 5]: 11.9 ± 0.4** mg/dL; Cl [1, 5]: 98 ± 0 mEq/L; GLU [1, 5]: 214 ± 8.2 mg/dL; HDL-C [1, 5]: 78.7 ± 4.7** mg/dL; IP [1, 5]: 11.1 ± 0.5 mg/dL; K [1, 5]: 6.9 ± 0.2 mEq/L; LDH [1, 5]: 732 ± 39.6 IU/L; Na [1, 5]: 150.7 ± 1.9 mEq/L; T-BIL [1, 5]: 0.03 ± 0.01 mg/dL; T-CHO [1, 5]: 154.7 ± 8.4** mg/dL; TG [1, 5]: 134 ± 52.8 mg/dL; TP [1, 5]: 4.9 ± 0.1 g/dL; γ-GT [1, 5]: 6> IU/L |
| CCCCCCCC/C=C\CCCCCCCC(=O)OC[C@H](COP(=O)(O)OCCN)OC(=O)CCCCCCC/C=C\CCCCCCCC [DOPE, 1,2-dioleoyl-sn-glycero-3-phosphoethanolamine] | – | – | – | – | – | – | – | – | – | – | – | – | – | – | – | – | Encapsulation rate [2, 6]: 89.1%; Number-average particle diameter [3, 6]: 55.7 nm; PdI [3, 6]: 0.196; ζ-average [3, 6]: 82.1 nm; ζ-potential [3, 6]: −2.35 mV; Fluc activity in liver and spleen (BALB/c mice): stable activity over a wide range of DOPE contents |
| B1 | 69.4% | 96.8 nm | 0.112 | 141.3 nm | 2.88 mV | 11.71 ID %/tissue | 0.16 ID %/tissue | 43.14 ID %/tissue | 0.33 ID %/tissue | 3.21 ID %/tissue | – | – | – | – | – | – | KO (%) 1st test (TTR gene; [8]): 0.3%; KO (%) 2nd test (TTR gene; [8]): 5.6%; in vitro DNA cleavage activity (dsDNA from the TTR locus; FIG. 7, TTR-RNP-ssODN, sgTTR-G211, 37° C. 30 min): extremely low DNA cleavage activity; relative DNA cleavage activity at 37° C. (dsDNA from the TTR locus; FIG. 22(A), sgTTR-G211 RNP, activity without ssODN = 100%): about 20% |
| B2 | – | – | – | – | – | – | – | – | – | – | 58.7% | 79.0 nm | 0.166 | 139.9 nm | 4.02 mV | about the same | – |
| B3 | – | – | – | – | – | – | – | – | – | – | 56.6% | 86.8 nm | 0.094 | 124.9 nm | 3.46 mV | about the same | – |
| B4 | 89.4% | 67.2 nm | 0.192 | 128.4 nm | 3.49 mV | 8.48 ID %/tissue | 0.17 ID %/tissue | 31.62 ID %/tissue | 0.18 ID %/tissue | 4.18 ID %/tissue | – | – | – | – | – | – | – |
